Test results: patent publication US20250339569A1 (3B PHARMACEUTICALS, published 2025)
Each block holds one binder with its values, some of them ahead of it. Starred links: 1 amine or outer side, 2 acyl side, 3 side chain; linkers in the order of their positions; H or OH if unused. Positions of bridges follow the written chain, without caps; N, C: chain ends. Non-standard residues stand in square brackets, D forms with d. Groups on a side chain read outwards from the residue. No end group written: not given here. *: point of attachment. DOTA = O=C(O)CN1CCN(CC(=O)O)CCN(CC(=O)*)CCN(CC(=O)O)CC1; mXylylene = c1cc(C[*:1])cc(C[*:2])c1; tBuAla = CC(C)(C)C[C@H](N)C(=O)O; 4Amb = NCc1ccc(C(=O)O)cc1; Ac6c = NC1(C(=O)O)CCCCC1; 4Amc = not defined here; APAc = not defined here; Apr = not defined here; AEEA = NCCOCCOCC(=O)O

Biological target: human carbonic anhydrase 9 (CAIX) (human, UniProt Q16790 38-459)
Experiment: FACS competition on HT-29 cells against tracer 3BP-2776; pIC50 category A = pIC50 >8.0
Protocol: CAIX-expressing human HT-29 colorectal cancer cells (DSMZ, RRID: CVCL_0320) were cultured in McCoys's 5A modified medium (Biochrom, #F1015) including 10% fetal calf serum (FCS), 2 mM L-glutamine, 100 U/ml penicillin and 100 μg/mL streptomycin. Cells were detached with Accutase (Biolegend, #423201) and washed in FACS buffer (PBS including 1% FCS). Cells were diluted in FACS buffer to a final concentration of 500.000 cells per ml. 200 μL of the cell suspension were transferred to a u-shaped non-binding 96-well plate (Greiner) and cells were washed in ice-cold FACS buffer.
When biotinylated compounds were used an additional incubation step with 1 μg/mL APC-Streptavidin (Miltenyi; #130-106-791) in 50 μL FACS buffer for 30 minutes on ice was performed.
Cells were washed twice with ice-cold FACS buffer and analyzed in an Attune NxT flow cytometer (Thermo Fisher). Median fluorescence intensities (MFI) of the APC/Cy5-channel were calculated by Attune NxT software.

B2: 3BP-3588 (peptide)
peptide: Ac-VRCE[dP]DWLTWSC-NH2
modifications: linker 3-12 via mXylylene
SMILES: CC(=O)N[C@H](C(=O)N[C@@H](CCCNC(=N)N)C(=O)N[C@H]1CSCc2cccc(c2)CSC[C@@H](C(N)=O)NC(=O)[C@H](CO)NC(=O)[C@H](Cc2c[nH]c3ccccc23)NC(=O)[C@H]([C@@H](C)O)NC(=O)[C@H](CC(C)C)NC(=O)[C@H](Cc2c[nH]c3ccccc23)NC(=O)[C@H](CC(=O)O)NC(=O)[C@H]2CCCN2C(=O)[C@H](CCC(=O)O)NC1=O)C(C)C
notes: also called Ac-Val-Arg-[Cys(3MeBn)-Glu-pro-Asp-Trp-Leu-Thr-Trp-Ser-Cys]-NH2
pIC50: > 8 pic50

B6: 3BP-3597 (peptide)
peptide: {DOTA-APAc}-VYCE[dP]DWLHWSC-NH2
modifications: linker 3-12 via mXylylene; reading uncertain
notes: also called DOTA-APAc-Val-Tyr-[Cys(3MeBn)-Glu-pro-Asp-Trp-Leu-His-Trp-Ser-Cys]-NH2
pIC50: > 8 pic50

B7: 3BP-3477 (peptide)
peptide: Ac-VYCE[dP]DWLTWAC[4Amb]K(DOTA)-NH2
modifications: linker 3-12 via mXylylene
SMILES: CC(=O)N[C@H](C(=O)N[C@@H](Cc1ccc(O)cc1)C(=O)N[C@H]1CSCc2cccc(c2)CSC[C@@H](C(=O)NCc2ccc(C(=O)N[C@@H](CCCCNC(=O)CN3CCN(CC(=O)O)CCN(CC(=O)O)CCN(CC(=O)O)CC3)C(N)=O)cc2)NC(=O)[C@H](C)NC(=O)[C@H](Cc2c[nH]c3ccccc23)NC(=O)[C@H]([C@@H](C)O)NC(=O)[C@H](CC(C)C)NC(=O)[C@H](Cc2c[nH]c3ccccc23)NC(=O)[C@H](CC(=O)O)NC(=O)[C@H]2CCCN2C(=O)[C@H](CCC(=O)O)NC1=O)C(C)C
notes: also called Ac-Val-Tyr-[Cys(3MeBn)-Glu-pro-Asp-Trp-Leu-Thr-Trp-Ala-Cys]-Pamb-Lys(DOTA)-NH2
pIC50: > 8 pic50

B8: 3BP-3474 (peptide)
peptide: Ac-VYCE[dP]DWLTWAC[AEEA]K(DOTA)-NH2
modifications: linker 3-12 via mXylylene
SMILES: CC(=O)N[C@H](C(=O)N[C@@H](Cc1ccc(O)cc1)C(=O)N[C@H]1CSCc2cccc(c2)CSC[C@@H](C(=O)NCCOCCOCC(=O)N[C@@H](CCCCNC(=O)CN2CCN(CC(=O)O)CCN(CC(=O)O)CCN(CC(=O)O)CC2)C(N)=O)NC(=O)[C@H](C)NC(=O)[C@H](Cc2c[nH]c3ccccc23)NC(=O)[C@H]([C@@H](C)O)NC(=O)[C@H](CC(C)C)NC(=O)[C@H](Cc2c[nH]c3ccccc23)NC(=O)[C@H](CC(=O)O)NC(=O)[C@H]2CCCN2C(=O)[C@H](CCC(=O)O)NC1=O)C(C)C
notes: also called Ac-Val-Tyr-[Cys(3MeBn)-Glu-pro-Asp-Trp-Leu-Thr-Trp-Ala-Cys]-O2Oc-Lys(DOTA)-NH2
pIC50: > 8 pic50

B9: 3BP-3491 (peptide)
peptide: Ac-VYCE[dP]DW[tBuAla]TWSC-NH2
modifications: linker 3-12 via mXylylene
SMILES: CC(=O)N[C@H](C(=O)N[C@@H](Cc1ccc(O)cc1)C(=O)N[C@H]1CSCc2cccc(c2)CSC[C@@H](C(N)=O)NC(=O)[C@H](CO)NC(=O)[C@H](Cc2c[nH]c3ccccc23)NC(=O)[C@H]([C@@H](C)O)NC(=O)[C@H](CC(C)(C)C)NC(=O)[C@H](Cc2c[nH]c3ccccc23)NC(=O)[C@H](CC(=O)O)NC(=O)[C@H]2CCCN2C(=O)[C@H](CCC(=O)O)NC1=O)C(C)C
notes: also called Ac-Val-Tyr-[Cys(3MeBn)-Glu-pro-Asp-Trp-Npg-Thr-Trp-Ser-Cys]-NH2
pIC50: > 8 pic50

B10: 3BP-3490 (peptide)
peptide: Ac-VYCE[dP]DW[tBuAla]TWAC-NH2
modifications: linker 3-12 via mXylylene
SMILES: CC(=O)N[C@H](C(=O)N[C@@H](Cc1ccc(O)cc1)C(=O)N[C@H]1CSCc2cccc(c2)CSC[C@@H](C(N)=O)NC(=O)[C@H](C)NC(=O)[C@H](Cc2c[nH]c3ccccc23)NC(=O)[C@H]([C@@H](C)O)NC(=O)[C@H](CC(C)(C)C)NC(=O)[C@H](Cc2c[nH]c3ccccc23)NC(=O)[C@H](CC(=O)O)NC(=O)[C@H]2CCCN2C(=O)[C@H](CCC(=O)O)NC1=O)C(C)C
notes: also called Ac-Val-Tyr-[Cys(3MeBn)-Glu-pro-Asp-Trp-Npg-Thr-Trp-Ala-Cys]-NH2
pIC50: > 8 pic50

B11: 3BP-3503 (peptide)
peptide: Ac-VYCE[dP]DW[Ac6c]TWAC-NH2
modifications: linker 3-12 via mXylylene
SMILES: CC(=O)N[C@H](C(=O)N[C@@H](Cc1ccc(O)cc1)C(=O)N[C@H]1CSCc2cccc(c2)CSC[C@@H](C(N)=O)NC(=O)[C@H](C)NC(=O)[C@H](Cc2c[nH]c3ccccc23)NC(=O)[C@H]([C@@H](C)O)NC(=O)C2(CCCCC2)NC(=O)[C@H](Cc2c[nH]c3ccccc23)NC(=O)[C@H](CC(=O)O)NC(=O)[C@H]2CCCN2C(=O)[C@H](CCC(=O)O)NC1=O)C(C)C
notes: also called Ac-Val-Tyr-[Cys(3MeBn)-Glu-pro-Asp-Trp-Egz-Thr-Trp-Ala-Cys]-NH2
pIC50: > 8 pic50

B12: 3BP-3431 (peptide)
peptide: {DOTA-4Amc}-VYCE[dP]DW[tBuAla]TWAC-NH2
modifications: linker 3-12 via mXylylene; reading uncertain
notes: also called DOTA-4Amc-Val-Tyr-[Cys(3MeBn)-Glu-pro-Asp-Trp-Npg-Thr-Trp-Ala-Cys]-NH2
pIC50: > 8 pic50

Results, then the binder that gave them:

pIC50: > 8 pic50
B1: 3BP-3735 (peptide)
peptide: Ac-SRCE[dP]DWLTWE([Apr-AEEA-DOTA])C-NH2
modifications: linker 3-12 via 3MeBn; reading uncertain
notes: also called Ac-Ser-Arg-[Cys(3MeBn)-Glu-pro-Asp-Trp-Leu-Thr-Trp-Glu(NH-Apr-O2Oc-DOTA′)-Cys]-NH2

pIC50: > 8 pic50
B3: 3BP-3843 (peptide)
peptide: Ac-VYCE[dP]DWLTWEC-NH2
modifications: linker 3-12 via mXylylene; not fully specified (residue 11); also: indium complexed by DOTA
notes: also called Ac-Val-Tyr-[Cys(3MeBn)-Glu-pro-Asp-Trp-Leu-Thr-Trp-Glu(NH-Apr-O2Oc-InDOTA′)-Cys]-NH2

pIC50: > 8 pic50
B4: 3BP-3784 (peptide)
peptide: VYCE[dP]DWLTWSC-NH2
modifications: linker 3-12 via 3MeBn; not fully specified (N-terminus); also: europium complexed by DOTA
notes: also called EuDOTA-APAc-Val-Tyr-[Cys(3MeBn)-Glu-pro-Asp-Trp-Leu-Thr-Trp-Ser-Cys]-NH2

pIC50: > 8 pic50
B5: 3BP-3844 (peptide)
peptide: Ac-VFCE[dP]DWLTWEC-NH2
modifications: linker 3-12 via mXylylene; not fully specified (residue 11); also: indium complexed by DOTA
notes: also called Ac-Val-Phe-[Cys(3MeBn)-Glu-pro-Asp-Trp-Leu-Thr-Trp-Glu(NH-Apr-O2Oc-InDOTA′)-Cys]-NH2
